Results from patent publication CN113667016A (PUMISI BIOTECHNOLOGY ZHUHAI CO LTD, dated 2021).

Molecular target: S1-His (SARS-CoV-2, UniProt P0DTC2 16-685)

B1: 89C8 (antibody, V domains shown)
VH: QVQLVQSGAEVKKPGSSVKVSCKASGGTFSSYAISWVRQAPGQGLEWMGGIIPILGIANYAQKFQGRVTITADKSTSTAYMELSSLRSEDTAVYYCARGGLGFGELFRKTGYYFDYWGQGTLVTVSS
VL: EIVMTQSPATLSVSPGERATLSCRASQSVSSNLAWYQQKPGQAPRLLIYAASTRATAIPARFSGSGSGTEFTLTISSLQSEDFAVYFCQQYNKLPLTFGGGTKVDIKR
B1 showed a Kd of 7.6 nM, a koff of 0.000385 s⁻¹ and a kon of 50400 M⁻¹ s⁻¹.
